According to patent publication US12576024B2, “Compositions comprising Propionibacterium acnes bacteriophages for treating acne” (priority 2017, dated 2026):
Entries after “also recorded” stand apart in the source; their conditions may differ.

B1: proteinase K: protease screened as P. acnes biofilm degrading enzyme (protein, UniProt P06873 106-384, looked up)
Proteinase K: AAQTNAPWGLARISSTSPGTSTYYYDESAGQGSCVYVIDTGIEASHPEFEGRAQMVKTYYYSSRDGNGHGTHCAGTVGSRTYGVAKKTQLFGVKVLDDNGSGQYSTIIAGMDFVASDKNNRNCPKGVVASLSLGGGYSSSVNSAAARLQSSGVMVAVAAGNNNADARNYSPASEPSVCTVGASDRYDRRSSFSNYGSVLDIFGPGTSILSTWIGGSTRSISGTSMATPHVAGLAAYLMTLGKTTAASACRYIADTANKGDLSNIPFGTVNLLAYNNYQA
B2: dispersin: a glycoside hydrolase from Aggregatibacter actinomycetemcomitans, biofilm degrading enzyme (protein)
chain: MNCCVKGNSIYPQKTSTKQTGLMLDIARHFYSPEVIKSFIDTISLSGGNFLHLHFSDHENYAIESHLLNQRAENAVQGKDGIYINPYTGKPFLSYRQLDDIKAYAKAKGIELIPELDSPNHMTAIFKLVQKDRGVKYLQGLKSRQVDDEIDITNADSITFMQSLMSEVIDIFGDTSQHFHIGGDEFGYSVESNHEFITYANKLSYFLEKKGLKTRMWNDGLIKNTFEQINPNIEITYWSYDGDTQDKNEAAERRDMRVSLPELLAKGFTVLNYNSYYLYIVPKASPTFSQDAAFAAKDVIKNWDLGVWDGRNTKNRVQNTHEIAGAALSIWGEDAKALKDETIQKNTKSLLEAVIHKTNGDE
modifications: Aggregatibacter actinomycetemcomitans
notes: a glycoside hydrolase from Aggregatibacter actinomycetemcomitans, biofilm degrading enzyme

Tested on: P. acnes biofilms
Assay: Screen of enzymes that degrade P. acnes biofilms (crystal violet)
Assay type: cell-based
Details: enzymes 0.01 mg/mL, 30° C., 30 mins
Experimental: FIG. 4. A screen to select enzymes that can degrade P. acnes biofilms. P. acnes was grown in polystyrene microtiter plates to stimulate biofilm production. Enzymes were added at 0.01 mg/mL to the wells and incubated at 30° C. for 30 mins. The degraded biofilm was washed away with phosphate buffered saline (PBS), and the residual biofilm in each well was quantified by staining with crystal violet and recording absorbance at 590 nm.
Without being bound by any scientific theory, we hypothesized that biofilms might present a significant barrier to phage killing of sessile P. acnes cells. […] In order to determine whether biofilm degradation would improve phage killing, a number of enzymes was screened to find a BDE specific for P. acnes. The screen comprised three classes of enzymes that might degrade types of materials that may be found in biofilms: DNA, polysaccharides, and proteins.

Row | Molecule | P. acnes biofilm degradation (residual biofilm, absorbance at 590 nm)
1 | B1 | good activity
2 | B2 | best glycoside depolymerase amongst those tested; also recorded: best rates of biofilm degradation
